Reference: publication PMC8826850 (2022)

Molecular target: SARS-CoV-2 HexaPro spike protein, wild type (SARS-CoV-2 wild type (GenBank …, UniProt A0A679G9E9, F817 to proline | A892 to proline | A899 to proline | A942 to proline | K986 to …))
Assay: BLI
Settings: both partners purified

B1: S2-E12 (antibody, V domains shown)
VH: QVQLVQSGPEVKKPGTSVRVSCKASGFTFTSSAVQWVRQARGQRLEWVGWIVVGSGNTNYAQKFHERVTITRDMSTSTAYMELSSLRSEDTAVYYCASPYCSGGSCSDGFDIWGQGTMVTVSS
VL: DIVLTQTPGTLSLSPGERATLSCRASQSVSSSYLAWYQQKPGQAPRLLIYGASSRATGIPDRFSGSGSGTDFTLTISRLEPEDFAVYYCQQYVGLTGWTFGQGTKVEIK
  binding result: binds
